According to US20050019751A1:

Target: human SR-BI with 12 vector-derived amino acids added to the carboxyl terminal (pcDNA3-SR-BI construct of Example 3) (human) (UniProt Q8WTV0)
Assay: FACS dot plot, BHK-21 cells transiently transfected with pcDNA3-SR-BI

UniProt Q8WTV0, sequence (Q8WTV0 other isoform, or with tags, fused parts or gaps limits assumed): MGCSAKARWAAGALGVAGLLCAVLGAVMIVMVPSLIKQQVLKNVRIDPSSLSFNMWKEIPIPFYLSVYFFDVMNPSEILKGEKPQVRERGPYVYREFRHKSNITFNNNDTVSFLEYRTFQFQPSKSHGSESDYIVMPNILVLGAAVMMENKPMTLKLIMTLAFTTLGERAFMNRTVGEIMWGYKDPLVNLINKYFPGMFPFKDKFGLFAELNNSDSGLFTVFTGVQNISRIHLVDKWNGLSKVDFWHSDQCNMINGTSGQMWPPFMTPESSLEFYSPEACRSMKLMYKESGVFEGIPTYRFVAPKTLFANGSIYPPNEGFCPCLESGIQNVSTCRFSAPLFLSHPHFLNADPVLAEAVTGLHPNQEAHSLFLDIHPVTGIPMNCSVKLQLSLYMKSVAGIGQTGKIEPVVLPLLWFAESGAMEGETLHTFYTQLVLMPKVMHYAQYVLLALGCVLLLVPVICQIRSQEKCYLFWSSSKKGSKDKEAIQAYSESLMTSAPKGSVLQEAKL

HCV E2 recombinant protein, genotype 1a (strain H), amino acids 384-661 of the HCV polyprotein with C-terminal 6 His tag (from UniProt P27958 384-661) (ligand)
percent of transfected cells that bind E2: 10%
